Reference: paper PMC12609908
Substitutions are numbered along the chain they refer to.

What was measured:
Test in all cases: EMSA
Conditions in all cases: 50 mM Tris-HCl pH 8.0, 100 mM NaCl, 40% glycerol, 5 mM DTT, 2 mM EDTA, 4 °C 1 h; 10% native PAGE in 0.5x TBE at 4 °C
[1] = target: T1, CutR Q38A Q38A (Mycobacterium sp. strain JC1) (UniProt D5G1X9)
T1 sequence: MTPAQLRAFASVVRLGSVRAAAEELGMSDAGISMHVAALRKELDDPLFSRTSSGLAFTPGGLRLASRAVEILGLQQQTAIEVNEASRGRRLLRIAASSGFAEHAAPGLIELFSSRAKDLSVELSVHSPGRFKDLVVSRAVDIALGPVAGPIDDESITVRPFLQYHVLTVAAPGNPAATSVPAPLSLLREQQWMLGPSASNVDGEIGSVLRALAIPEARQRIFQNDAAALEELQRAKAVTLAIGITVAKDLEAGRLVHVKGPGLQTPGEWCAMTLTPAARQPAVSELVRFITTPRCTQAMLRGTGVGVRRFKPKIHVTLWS

[2] = target: T2, CutR Q5A Q5A (Mycobacterium sp. strain JC1) (UniProt D5G1X9)
T2 sequence: T1 sequence with Q5A, A38Q

[3] = target: T3, CutR R19A R19A (Mycobacterium sp. strain JC1) (UniProt D5G1X9)
T3 sequence: T1 sequence with R19A, A38Q

[4] = target: T4, CutR R40A R40A (Mycobacterium sp. strain JC1) (UniProt D5G1X9)
T4 sequence: T1 sequence with A38Q, R40A

[5] = target: T5, CutR R7A R7A (Mycobacterium sp. strain JC1) (UniProt D5G1X9)
T5 sequence: T1 sequence with R7A, A38Q

For “ACCCCGAGTTAAGTGATTCCTTAACTCGCTATTGACGCCATCGCGGCGGCAACGGAAACTAGCCACTTCAGCCACGACGTTGTGAGGATGATCACATGCAA (double strand) [IR1 to CRP motif fragment (101 bp)]”, the binding [1] was “binds”, the binding [2] was “binds” and the binding [3] was “binds”. For the same sequence, the binding [4] was “no binding” and the binding [5] was “binds”.
